Results on one substance are retold here after doi:10.1101/2022.05.09.491158.

The assay has as its target purified recombinant I-A^b carrying a cleavable linker peptide (mouse). Kind of assay: fluorescent peptide competition binding assay.

Turning to “NP peptide Q2, P2 (Ser to Gln) (from UniProt P03466 311-325)”, the reduction in peptide-MHC binding (against the unsubstituted peptide) is 3.4.
